Laboratory results taken from US20240415884A1.

Molecular target: T1, CD276 expressed on cells (Du145, PC3, CD276+ 293T, CHO-K1-CD276-Luci cells) (human) (UniProt Q5ZPR3)
T1 sequence (looked up): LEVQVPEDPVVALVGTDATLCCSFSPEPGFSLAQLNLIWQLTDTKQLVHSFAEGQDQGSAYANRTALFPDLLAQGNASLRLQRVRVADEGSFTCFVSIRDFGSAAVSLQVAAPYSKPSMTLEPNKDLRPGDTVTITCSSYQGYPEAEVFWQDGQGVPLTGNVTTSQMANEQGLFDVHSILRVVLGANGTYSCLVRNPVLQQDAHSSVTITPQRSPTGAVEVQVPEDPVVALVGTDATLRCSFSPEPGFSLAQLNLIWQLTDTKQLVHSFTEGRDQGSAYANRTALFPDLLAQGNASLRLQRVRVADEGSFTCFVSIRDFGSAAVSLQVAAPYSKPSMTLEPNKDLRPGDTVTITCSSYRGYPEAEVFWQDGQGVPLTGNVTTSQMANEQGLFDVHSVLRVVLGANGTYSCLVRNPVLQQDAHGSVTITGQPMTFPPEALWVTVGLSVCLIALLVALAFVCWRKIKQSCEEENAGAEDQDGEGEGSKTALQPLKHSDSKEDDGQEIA

EC50 (read off the curve), percent lysis: 8 nM
B1: BiTE #5 (bispecific antibody, part only; not given: anti-CD3 scFv, part only)
chain, part: EVQLVESGGGLVQPGGSLRLSCAASPFPFTIYEMSWVRQASGKALEWIGYINHSGSTNYNPSLKSRVTISRDNSKNTLYLQMNSLRAEDTAMYYCAILAPDYWGQGTLVTVSSGGGGSGGGGSGGGGS
